{"source": "patent EP2325637A1", "target": "GFP-tagged Rab11a (UniProt P62491)", "sequence (P62491 whole entry, the tested form may be a part)": "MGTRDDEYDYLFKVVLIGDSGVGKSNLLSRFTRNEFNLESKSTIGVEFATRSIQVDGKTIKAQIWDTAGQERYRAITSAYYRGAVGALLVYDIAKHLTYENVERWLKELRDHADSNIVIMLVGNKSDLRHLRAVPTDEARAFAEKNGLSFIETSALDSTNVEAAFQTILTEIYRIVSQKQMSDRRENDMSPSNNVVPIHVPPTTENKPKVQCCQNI", "experiment": "cell-based or functional assay", "data": [{"substance": "mCherry-MyoVa(1100-1853) fusion protein (from UniProt Q9Y4I1 1100-1828)", "values": [{"measurement": "colocalisation (confocal microscopy, HeLa cells)", "result": 100, "unit": "%"}]}]}
